Source: US10774132B2, “Ultralong complementarity determining regions and uses thereof” (THE SCRIPPS RESEARCH INSTITUTE, priority 2012, dated 2020)

Legend:
[1] = Pharmacokinetics in mice (ELISA of blood samples); type: in vivo; conditions: 70 μg injected, BALB/c mice
Method: For PK study in mice, 70 μg of the immunoglobulin constructs described herein were injected into 3 BALB/c mice per group. Blood samples were drawn from time 0 to 14 days with extended intervals and analyzed by ELISA using anti-human IgG Fc antibody with horseradish peroxidase (HRP) labeled (KPL) and anti-6×His antibody (“6×His” disclosed as SEQ ID NO: 511) with HRP labeled (Clontech). Data were normalized by taking maximal concentration at the first time point (30 min).

[2] = test system: Human mPB CD34+ cells; assay: Proliferative activity on human granulocyte progenitors (flow cytometry); type: cell-based; conditions: 7 days, flow cytometry
Method: Human mPB CD34^+ cells were purchased from AllCells. Cells were resuspended in HSC expansion medium (StemSpan SFEM, StemCell Technologies) supplemented with 1× antibiotics and the following recombinant human cytokines: thrombopoietin, IL6, Flt3 ligand, and stem cell factor (100 ng/mL, R & D Systems), then plated in 96-well plates (1000 cells per well), with varied concentrations of BLV1H12-bGCSF fusion antibodies. Cells were cultured for 7 days at 37° C. in a 5% CO2 incubator, then analyzed by flow cytometry to measure cell number and expression of CD45ra and CD41. Cells were stained in staining medium (HBSS supplemented with 2% FBS and 2 mM EDTA) at 4° C. for 1 h with PECy7 anti-CD45ra and eFluor 450 anti-CD41 (eBiosciences), then washed with staining medium and analyzed. Multicolor analysis for cell phenotyping was performed on a LSR II flow cytometer (Becton Dickinson). FIGS. 10A-10E and Tables 9-10 show the human granulocyte progenitor cell proliferative activities of the Ab-GCSF fusion antibodies.

[3] = test system: mice neutrophils; assay: Neutrophil counts in mice, 10th day after injection; type: in vivo; conditions: blood stained and counted at the 10th day post-injection
Method: On the 10th day after injection of BLV1H12-bGCSF fusion antibodies into mice for PK study, blood samples were drawn from the mice and stained using the Diff Quick Staining Kit (Thermo Fisher Scientific, IL). Neutrophils and white blood cells were counted under microscope and the percentages of neutrophils were analyzed. FIGS. 12A-12B and Table 12 show proliferative activities of BLV1H12-bGCSF fusion antibodies on mice neutrophils that are blood stained and counted at the 10th day post-injection.

[4] = test system: Mouse NFS-60 cells; assay: Proliferation assay on mouse NFS-60 cells (AlamarBlue); type: cell-based; conditions: 72 hours
Method: Mouse NFS-60 cells were obtained from American Type Culture Collection (ATCC), VA, and cultured in RPMI-1640 medium supplemented with 10% fetal bovine serum (FBS), 0.05 mM 2-mercapoethanol and 62 ng/ml human macrophage colony stimulating factor (M-CSF). For proliferation assay, mouse NFS-60 cells were washed three times with RPMI-1640 medium and resuspended in RPMI-1640 medium with 10% FBS and 0.05 mM 2-mercapoethanol at a density of 1.5×10^5 cells/ml. In 96-well plates, 100 μl of cell suspension was added into each well, followed by the addition of varied concentrations of bGCSF, BLV1H12 antibody, and the immunoglobulin constructs described herein, Equal volume of PBS buffer was added into the control wells. The plates were incubated at 37° C. in a 5% CO2 incubator for 72 hours. Cells were then treated with AlamarBlue (Invitrogen) ( 1/10 volume of cell suspension) for 4 hours at 37° C. Fluorescence at 595 nm for each well was read to indicate the cell viability.

[5] = test system: NS2-3 non-structural proteins of BVDV; assay: Immunocytometric analysis of HEK 293A cells transfected with BVDV antigens; type: binding, bovine viral diarrhea virus; conditions: 10 μg/ml antibody
Method: (§1) Additionally, binding of the chimeric recombinant antibodies to BVDV antigens was evaluated by immunocytometric analysis of transfected human embryonic kidney (HEK) 293A cells (Invitrogen), as previously described (see, e.g., Njongmeta et al. (2012) Vaccine 30:1624-1635). Briefly, HEK 293A monolayers grown in 6-well tissue culture plates were transfected with 2 µg/well of plasmid (pCDNA3.3, Invitrogen) encoding BVDV antigens (N^pro, E2, or non-structural proteins NS2-3) using Lipofectamine 2000 reagent (Invitrogen), and incubated for 48 hr at 37° C. with 5% CO2. The monolayers were fixed with ice-cold 100% methanol for 10 minutes, rinsed with PBS, and after blocking for 1 hr with PBS containing 5% fetal bovine serum (blocking buffer), the monolayers were incubated at room temperature for 1 hr with 10 μg/ml of a mouse anti-FLAG M2-alkaline phosphatase (AP)-conjugate (Sigma) in blocking buffer or 10 μg/ml of the chimeric recombinant antibodies (H12 or B8). […] Following washes in blocking buffer, the AP activity in all the wells was detected using Fast Red AS-MX substrate (Sigma). […]

[6] = test system: untransfected HEK293A cells; assay: Immunocytometric analysis, untransfected HEK293A cells; type: binding, human; conditions: 10 μg/ml antibody
Method: as §1

[7] = molecular target: T1, CXCR1 (Homo sapiens, UniProt P25024); assay: Flow cytometry binding to CXCR1-U2OS cells
T1 construct: host or cells: U2OS
T1 sequence (P25024 1-350): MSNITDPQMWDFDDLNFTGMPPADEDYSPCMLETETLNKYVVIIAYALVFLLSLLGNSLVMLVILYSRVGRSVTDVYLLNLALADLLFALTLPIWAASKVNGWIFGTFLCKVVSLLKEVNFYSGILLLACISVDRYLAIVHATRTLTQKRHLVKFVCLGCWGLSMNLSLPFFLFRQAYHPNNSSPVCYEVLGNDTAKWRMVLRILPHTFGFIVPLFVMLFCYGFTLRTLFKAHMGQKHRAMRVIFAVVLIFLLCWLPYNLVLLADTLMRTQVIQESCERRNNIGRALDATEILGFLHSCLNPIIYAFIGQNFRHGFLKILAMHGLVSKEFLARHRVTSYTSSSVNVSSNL
Method: (§2) Briefly, a cell line expressing functionally validated CXCR1 derived from U2OS cells was obtained from DiscoveRx and cultured per manufacturer's instructions (Cat #93-0226C3, DiscoveRx Corporation, Freemont, Calif.). The parental cell line U2OS was obtained from ATCC and cultured under the same conditions as the CXCR1 cells. Cell culture supernatants from Example 2 above were then tested for binding to cells by flow cytometry. The adherent U2OS or CXCR1-U2OS cells were dissociated with Accutase (Innovative Cell Technologies, Inc., San Diego, Calif.), neutralized with an equal volume of media containing 10% serum, centrifuged at 1000 g, and resuspended in PBS with 2% BSA. Next, cells were dispensed into microtiter plates to achieve between 30,000 to 300,000 cells per well, centrifuged again, and resuspended in cell culture supernatant containing expressed IgG, or a dilution of IgG-containing cell culture supernatant. A fluorescent-conjugated anti-Human Fc antibody was used to detect binding of the expressed BLV1H12-IL8 fusion proteins to cells.

[8] = test system: Parental U2OS; assay: Flow cytometry binding to parental U2OS cells; conditions: cell culture supernatant
Method: as §2

B1: bGCSF: bovine G-CSF (protein, listed as Bos taurus)
chain: TPLGPARSLPQSFLLKCLEQVRKIQADGAELQERLCAAHKLCHPEELMLLRHSLGIPQAPLSSCSSQSLQLTSCLNQLHGGLFLYQGLLQALAGISPELAPTLDTLQLDVTDFATNIWLQMEDLGAAPAVQPTQGAMPTFTSAFQRRAGGVLVASQLHRFLELAYRGLRYLAEP
modifications: bGCSF
notes: bovine G-CSF
[1]; 0.5 hour
  Percentage (blood level normalized to first time point, 30 min): 100.00%
[1]; 1 hour
  Percentage (blood level normalized to first time point, 30 min): 79.52%
[1]; 3 hour
  Percentage (blood level normalized to first time point, 30 min): 56.81%
[1]; 6 hour
  Percentage (blood level normalized to first time point, 30 min): 14.94%
[1]; 24 hour
  Percentage (blood level normalized to first time point, 30 min): 4.08%
[1]; 48 hour
  Percentage (blood level normalized to first time point, 30 min): 0.00%
[1]; 72 hour
  Percentage (blood level normalized to first time point, 30 min): 0.00%
[2]; 0.55886 ng/mL
  Number of CD45RA-CD41-: 7354
[2]; 1.67657 ng/mL
  Number of CD45RA-CD41-: 9776
[2]; 5.02972 ng/mL
  Number of CD45RA-CD41-: 12700
[2]; 15.08916 ng/mL
  Number of CD45RA-CD41-: 13200
[2]; 45.26749 ng/mL
  Number of CD45RA-CD41-: 13700
[2]; 135.80247 ng/mL
  Number of CD45RA-CD41-: 13300
[2]; 407.40741 ng/mL
  Number of CD45RA-CD41-: 13700
[2]; 1222.22222 ng/mL
  Number of CD45RA-CD41-: 14100
[2]; 3666.66667 ng/mL
  Number of CD45RA-CD41-: 13100
[2]; 11000 ng/mL
  Number of CD45RA-CD41-: 13800
[3]
  Percentage of Neutrophil: 16.48
[4]; 0.09145 ng/mL
  F.I. (fluorescence at 595 nm, AlamarBlue, cell viability): 1214
[4]; 0.27435 ng/mL
  F.I. (fluorescence at 595 nm, AlamarBlue, cell viability): 1360.925
[4]; 0.82305 ng/mL
  F.I. (fluorescence at 595 nm, AlamarBlue, cell viability): 1761
[4]; 2.46914 ng/mL
  F.I. (fluorescence at 595 nm, AlamarBlue, cell viability): 2101
[4]; 7.40741 ng/mL
  F.I. (fluorescence at 595 nm, AlamarBlue, cell viability): 2405
[4]; 22.22222 ng/mL
  F.I. (fluorescence at 595 nm, AlamarBlue, cell viability): 2646
[4]; 66.66667 ng/mL
  F.I. (fluorescence at 595 nm, AlamarBlue, cell viability): 2812.098
[4]; 200 ng/mL
  F.I. (fluorescence at 595 nm, AlamarBlue, cell viability): 3087.144

B2: H12 (protein, listed as Bos taurus)
chain: CVIVHQKTTQQSSCPAGFRDCVACTPGPESCCRSGCDGARRRVGLRYFFDSTSPITTYTYEHHIDAW
modifications: H12
[5]
  binding to HEK293A cells transfected with NS2-3 of BVDV: strongly binds
[6]
  binding to untransfected cells: weakly bound

B3: hGCSF: human G-CSF (protein, UniProt P09919 31-207, looked up)
Granulocyte …: TPLGPASSLPQSFLLKCLEQVRKIQGDGAALQEKLVSECATYKLCHPEELVLLGHSLGIPWAPLSSCPSQALQLAGCLSQLHSGLFLYQGLLQALEGISPELGPTLDTLQLDVADFATTIWQQMEELGMAPALQPTQGAMPAFASAFQRRAGGVLVASHLQSFLEVSYRVLRHLAQP
[2]; 4.11523 ng/mL
  Number of CD45RA-CD41-: 5900
[4]; 0.09145 ng/mL
  F.I. (fluorescence at 595 nm, AlamarBlue, cell viability): 1266.554
[4]; 0.27435 ng/mL
  F.I. (fluorescence at 595 nm, AlamarBlue, cell viability): 1478.287
[4]; 0.82305 ng/mL
  F.I. (fluorescence at 595 nm, AlamarBlue, cell viability): 1752.216
[4]; 2.46914 ng/mL
  F.I. (fluorescence at 595 nm, AlamarBlue, cell viability): 2224.028
[4]; 7.40741 ng/mL
  F.I. (fluorescence at 595 nm, AlamarBlue, cell viability): 2587.222
[4]; 22.22222 ng/mL
  F.I. (fluorescence at 595 nm, AlamarBlue, cell viability): 2751.249
[4]; 66.66667 ng/mL
  F.I. (fluorescence at 595 nm, AlamarBlue, cell viability): 2815.37
[4]; 200 ng/mL
  F.I. (fluorescence at 595 nm, AlamarBlue, cell viability): 2948.509

B4: BLV1H12-IL8: human IL-8 (amino acids 26-99) replacing the knob domain of BLV1H12 CDR3H, SEQ ID NO: 38 (antibody)
heavy: QVQLRESGPSLVKPSQTLSLTCTASGFSLSDKAVGWVRQAPGKALEWLGSIDTGGNTGYNPGLKSRLSITKDNSKSQVSLSVSSVTTEDSATYYCTSVHQETKKYQSPRSAKELRCQCIKTYSKPFHPKFIKELRVIESGPHCANTEIIVKLSDGRELCLDPKENWVQRVVEKFLKRAENSGSGSYTYNYEWHVDVWGQGLLVTV
[7]
  specificity (ratio of median fluorescence of CXCR1-U2OS cells versus U2OS parental cells): has specificity for CXCR1
[7]; CXCR1-U2OS cells, cell culture supernatant, flow cytometry
  Median Arbitrary Fluorescence Units (IgG binding): 707 AFU
[8]
  Median Arbitrary Fluorescence Units (IgG binding): 76 AFU
